What all share (test): SPR; Biacore S200; Bcl-2 family proteins immobilised on CM5 (amine coupling or His-Capture Kit); peptides and flag-tagged proteins as analytes, single-cycle kinetics, HBS-EP, 25 °C; 1:1 Langmuir model; absence of binding probed at 100 nM and 3 µM
Assay [1] concerns the target Bcl-2 (human) (UniProt P10415).
In assay [2] the target is Bcl-xL (human) (UniProt Q07817).
For assay [3], the target named is His-tagged human Mcl-1 (human) (UniProt Q07820).
Chain of His-tagged human Mcl-1 (human) (Q07820 whole entry): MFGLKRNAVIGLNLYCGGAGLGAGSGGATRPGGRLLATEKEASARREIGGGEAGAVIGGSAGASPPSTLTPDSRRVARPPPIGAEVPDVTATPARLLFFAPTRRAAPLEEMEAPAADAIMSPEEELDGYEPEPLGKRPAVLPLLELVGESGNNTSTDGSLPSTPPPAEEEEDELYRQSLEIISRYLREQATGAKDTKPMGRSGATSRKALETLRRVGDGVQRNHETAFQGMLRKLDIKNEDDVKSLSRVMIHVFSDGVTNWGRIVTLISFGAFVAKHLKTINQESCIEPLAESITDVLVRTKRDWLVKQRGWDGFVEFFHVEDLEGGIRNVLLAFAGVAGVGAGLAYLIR

Chain of Bcl-xL (human) (Q07817 whole entry): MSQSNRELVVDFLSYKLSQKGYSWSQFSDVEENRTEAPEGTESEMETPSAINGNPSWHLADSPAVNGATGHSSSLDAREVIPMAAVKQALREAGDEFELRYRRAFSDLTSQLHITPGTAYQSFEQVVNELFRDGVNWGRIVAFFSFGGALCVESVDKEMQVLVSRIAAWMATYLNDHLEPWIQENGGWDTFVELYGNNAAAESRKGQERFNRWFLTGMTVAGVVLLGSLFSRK

For orientation: Kd means the concentration at which binding is half-saturated. Read a low Kd as a tighter complex. For ESQEDIIRNIIRHLAQVGDSMDRSI [Bid (A87I) peptide], the Kd in assay [1] is 158 nM; in assay [2], 28.5 nM.
For the molecule ESQEDIIRNIARHLAQVGDSMDRSI [Bid BH3 peptide (25-mer, residues 77-101)], the Kd in assay [1] turned out to be 96.7 nM; in assay [2], 7.12 nM; in assay [3] it was 12.8 nM.
